For 29 sequences, protein stability index results are on record in the supplement of paper PMC10567573.

The nature of this series: protein stability index of a GFP-peptide fusion (GPS, HEK-293T) (PSI 1-6); higher = more stable. To be noted: c terminus: a fixed tail appended.

± gives the standard deviation.
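Note: 24-mer peptide tiles fused after GFP, lentivirally expressed, FACS-sorted into six equal bins by GFP/DsRed ratio, decoded by Illumina sequencing, PSI is the read-weighted mean bin number.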

For FLCLQYRLRGKLRAEIENLHRTFD [MOG], the protein stability index is, setting by setting: (treatment: DMSO) 2.41 ± 0.57; (treatment: MLN4924 1 uM, 8 h) 2.18 ± 0.39.
Turning to FLGETKQETLTNISAVNYDFDEEY [DAPK3], the protein stability index runs as follows: (treatment: DMSO) 4.77 ± 0.35; (treatment: MLN4924 1 uM, 8 h) 4.84 ± 0.24.
Taken in the same sequence, the figures for FLGGVVRMTISLTVILIESTNEIT [CLCN6] were 3.41 ± 0.43 and 3.42 ± 0.19.
As for FMHENLYFTNRKVNSVCWASLNHL [DCAF4], the protein stability index came out at 2.69 ± 0.48 (treatment: DMSO) and 2.46 ± 0.53 (treatment: MLN4924 1 uM, 8 h).
In the case of FMQTGYNKLCDWWSLGVIMYEMLI [STK38L], the protein stability index is, setting by setting: (treatment: DMSO) 2.77 ± 0.82; (treatment: MLN4924 1 uM, 8 h) 2.47 ± 0.64.
The sequence FPLKPMVHRKSCSTGEAGTDGDHN [ZC2HC1C] showed a protein stability index (treatment: DMSO) of 4.53 ± 0.18 and a protein stability index (treatment: MLN4924 1 uM, 8 h) of 4.38 ± 0.27.
Turning to FPNWAMALLITLIVVATLPIPVVF [SLC6A17], the protein stability index stood at 3.43 ± 0.88 (treatment: DMSO) and 3.04 ± 0.33 (treatment: MLN4924 1 uM, 8 h).
For FQEYDTDCEVFRQRFRQFQYREAA [ZNF449], the protein stability index is, setting by setting: (treatment: DMSO) 2.77 ± 0.27; (treatment: MLN4924 1 uM, 8 h) 3.18 ± 0.23.
As to FQKSHNSLQRWEHLKKVASRYQNN [PRIM1], the protein stability index is, setting by setting: (treatment: DMSO) 2.46 ± 0.42; (treatment: MLN4924 1 uM, 8 h) 2.9 ± 0.13.
Taken in the same sequence, the figures for FSGHFLCTSSWDKNLKIWNVHTGE [WDR88] were 2.71 ± 0.71 and 2.55 ± 0.15.
Turning to FSNTSELAKDFIRRLLVKDPKRRM [DAPK3], the protein stability index is, setting by setting: (treatment: DMSO) 2.36 ± 0.19; (treatment: MLN4924 1 uM, 8 h) 2.16 ± 0.44.
As for FVLYFLLACWTYGISVPSGLFVPS [CLCN6], the protein stability index is, setting by setting: (treatment: DMSO) 3.49 ± 0.56; (treatment: MLN4924 1 uM, 8 h) 3.09 ± 0.14.
FVNDLTVTQDGRKIYFTDSSSKWQ [APMAP]: the protein stability index was found to be 2.8 ± 0.46 (treatment: DMSO) and 2.92 ± 0.24 (treatment: MLN4924 1 uM, 8 h).
FYLVYFKIQASGETPNSLNTTVIP [LYSMD4] showed a protein stability index (treatment: DMSO) of 2.9 ± 0.04.
For GAAVGTGSSYPTTTISYLPHAPPF [JUNB], the protein stability index reads like this: (treatment: DMSO) 3.1 ± 0.29; (treatment: MLN4924 1 uM, 8 h) 3.35 ± 0.36.
As to GAEDGDRAILYPCHGMSSQLVRYS [GALNT9], the protein stability index amounted to 3.09 ± 0.17 (treatment: DMSO) and 3.16 ± 0.29 (treatment: MLN4924 1 uM, 8 h).
Turning to GAHFPQVPGGAVRVAAAAGSGPSP [PI4K2A], the protein stability index runs as follows: (treatment: DMSO) 4.53 ± 0.14; (treatment: MLN4924 1 uM, 8 h) 4.48 ± 0.088.
Consider GAYQPTVVSSEGRQSRRQSVSRFF [FBF1], for which the protein stability index by setting is: (treatment: DMSO) 4.01 ± 0.37; (treatment: MLN4924 1 uM, 8 h) 4.1 ± 0.32.
Taken in the same sequence, the figures for GCRTTHSNQEVLQSCLLVIFATKP [PYCR3] were 2.64 ± 0.68 and 2.65 ± 0.91.
As for GDWHSPTLIREKSFGACLREETPR [ELOA2], the protein stability index came out at 3.61 ± 0.3 (treatment: DMSO) and 3.76 ± 0.32 (treatment: MLN4924 1 uM, 8 h).
Consider GELQESGLALCPEVQDLLEGCELP [SMG5], for which the protein stability index is 5.17 ± 0.11 (treatment: DMSO) and 5.08 ± 0.22 (treatment: MLN4924 1 uM, 8 h).
Consider GENAGSLTHIEAQNKIRACGERLS [PDLIM7], for which the protein stability index by setting is: (treatment: DMSO) 4.57 ± 0.26; (treatment: MLN4924 1 uM, 8 h) 4.62 ± 0.14.
GEPQQDCCVKTELLGEETPMAADE [EHMT1]: the protein stability index amounted to 5.55 ± 0.25 (treatment: DMSO) and 5.53 ± 0.14 (treatment: MLN4924 1 uM, 8 h).
Taken in the same sequence, the figures for GFAERRIDKFGFIVGSQGAEGALE [TBC1D10A] were 3.93 ± 0.46 and 3.93 ± 0.19.
The like results for GFSCDGTANTFRVMFKEPIEILPN [BTBD1] were, in that order, 2.6 ± 0.22 and 2.73 ± 0.31.
In the case of GGATFLLTAKQLIKSIVEASKGCQ [TRIM63], the protein stability index runs as follows: (treatment: DMSO) 2.87 ± 0.7; (treatment: MLN4924 1 uM, 8 h) 2.86 ± 0.47.
Consider GGGLTGVSGSHFVGVDGVRAFLQT [PCDHGA10], for which the protein stability index was determined as 2.82 ± 0.29 (treatment: DMSO) and 2.83 ± 0.32 (treatment: MLN4924 1 uM, 8 h).
In the case of GGPQRIPAHRFVLAAGSAVFDAMF [BTBD1], the protein stability index reads like this: (treatment: DMSO) 2.52 ± 0.31; (treatment: MLN4924 1 uM, 8 h) 2.2 ± 0.56.
Regarding GGRFRCPSCRHEVVLDRHGVYGLQ [TRIM55], the protein stability index was 2.31 ± 0.23 (treatment: DMSO) and 2.36 ± 0.6 (treatment: MLN4924 1 uM, 8 h).
